# Target: HLA-A*01 (human)
# Assay: UV peptide exchange ELISA
row,Binder,peptide exchange yield
1,ECDMAFHIY,> 75%
2,VTDGSLYEGVAY,> 75%
3,VVDSVGGYLY,> 75%
4,VVADTKMIEY,10 to 20%
5,ASEQQALHTVQY,> 75%
6,NTDNNLAVY,> 75%
7,WMFFVINY,10 to 20%
8,ATDLVVLDRY,> 75%

# Target: HLA-B*07 (human)
# Assay: UV peptide exchange ELISA
# From the text: (§1) Candidate peptides for T cell based therapies according to the present invention were further tested for their MHC binding capacity (affinity). The individual peptide-MHC complexes were produced by UV-ligand exchange, where a UV-sensitive peptide is cleaved upon UV-irradiation, and exchanged with the peptide of interest as analyzed. Only peptide candidates that can effectively bind and stabilize the peptide-receptive MHC molecules prevent dissociation of the MHC complexes. To determine the yield of the exchange reaction, an ELISA was performed based on the detection of the light chain (β2m) of stabilized MHC complexes. The assay was performed as generally described in Rodenko et al. (Rodenko et al., 2006).
# (§2) 96 well MAXISorp plates (NUNC) were coated over night with 2 ug/ml streptavidin in PBS at room temperature, washed 4× and blocked for 1 h at 37° C. in 2% BSA containing blocking buffer. […] Peptide-MHC monomers of the UV-exchange reaction were diluted 100-fold in blocking buffer. Samples were incubated for 1 h at 37° C., washed four times, incubated with 2 ug/ml HRP conjugated anti-β2m for 1h at 37° C., washed again and detected with TMB solution that is stopped with […]. Absorption was measured at 450 nm.
row,Binder,peptide exchange yield
1,SAYPQRLEI,10 to 20%

# Target: HLA-A*03 (human)
# Assay: UV peptide exchange ELISA
# From the text: as §1, §2
row,Binder,peptide exchange yield
1,KTLVAELLILK,50 to 75%
2,KLYAWELAF,50 to 75%

# Target: HLA-A*02 (human)
# Assay: UV peptide exchange ELISA
row,Binder,peptide exchange yield
1,ALCLLLHLL,10 to 20%
2,LMAFFLAVV,20 to 50%
